Patent US20180155451A1 (published 2018)

Experiments:
[1] = molecular target: T1, FcγRIIIa extracellular domain with C-terminal His tag (human, UniProt P08637 17-208); assay: SPR (Biacore), captured antibody, FcγR as analyte; relative to GpH7-A5/GpH7-B3/GpL16-k0 = 100
T1 construct: extracellular domain; also called FcgRIIIa; 3a; not shown: His tag at the C terminus
Experimental: (§1) Analysis of interaction between objective antibody and the FcγR was carried out using Biacore T100 (GE Healthcare). HBS-EP+ (GE Healthcare) was used as the running buffer, and the measurement temperature was set to 25° C. Chips produced by immobilizing the antigen peptide by the amine coupling method to a Series S Sencor Chip CM5 (GE Healthcare), or alternatively, chips produced by allowing preliminarily biotinylated antigen peptides to interact with and immobilize onto a Series S Sensor Chip SA (certified) (GE Healthcare) were used. Antibodies of interest were captured onto an antigen peptide-immobilized chip, and allowed to interact to each FcγR diluted with running buffer. To regenerate and repeatedly use the chip, the antibodies captured on the chip were washed off by reacting 10 mM glycine-HCl, pH 1.5.
(§2) The FcγR-binding activity of each antibody was assessed primarily using as an indicator the FcγR-binding activity and dissociation constant for FcγR.

[2] = molecular target: T2, FcγRIIb extracellular domain with C-terminal His tag (human, UniProt P31994 43-217); assay: as above
T2 construct: extracellular domain; also called FcgRIIb; 2b; not shown: His tag at the C terminus
T2 sequence (looked up): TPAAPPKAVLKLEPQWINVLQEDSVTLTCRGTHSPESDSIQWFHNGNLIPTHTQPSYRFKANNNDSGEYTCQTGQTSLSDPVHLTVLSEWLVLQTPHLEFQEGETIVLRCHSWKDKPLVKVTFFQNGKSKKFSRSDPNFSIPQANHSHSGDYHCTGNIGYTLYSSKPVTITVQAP
Experimental: as §1, §2

T1 sequence (P08637 17-208): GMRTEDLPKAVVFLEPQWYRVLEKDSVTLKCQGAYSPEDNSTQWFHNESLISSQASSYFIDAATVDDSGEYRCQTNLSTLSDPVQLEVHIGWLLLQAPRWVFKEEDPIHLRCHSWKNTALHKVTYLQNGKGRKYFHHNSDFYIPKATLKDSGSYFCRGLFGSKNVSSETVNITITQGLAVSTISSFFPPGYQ

Binder	He/Con_3a (IIIa binding) [1]	He/Con_2b (IIb binding) [2]
GpH7-A5/GpH7-B3 variant P238_03V/GpL16-k0 (heterodimerized antibody, He Ab) (antibody, human IgG1, kappa, Anti-glypican-3 IgG1; the alteration is in the GpH7-B3 chain only; also called P238V) heavy 1: not shown heavy 2: not shown light: DIVMTQSPLSLPVTPGEPASISCQASESLVHSNRNTYLHWYLQKPGQSPQLLIYKVSNRFSGVPDRFSGSGSGTDFTLKISRVEAEDVGVYYCSQNTHVPPTFGQGTKVEIERTVAAPSVFIFPPSDEQLKSGTASVVCLLNNFYPREAKVQWKVDNALQSGNSQESVTEQDSKDSTYSLSSTLTLSKADYEKHKVYACEVTHQGLSSPVTKSFNRGEC	43.8 % of HeCon Ab	120 % of HeCon Ab
GpH7-A5/GpH7-B3 variant G236_09D/GpL16-k0 (heterodimerized antibody, He Ab) (antibody, human IgG1, kappa, Anti-glypican-3 IgG1; the alteration is in the GpH7-B3 chain only; also called G236D) heavy 1: not shown heavy 2: not shown light: DIVMTQSPLSLPVTPGEPASISCQASESLVHSNRNTYLHWYLQKPGQSPQLLIYKVSNRFSGVPDRFSGSGSGTDFTLKISRVEAEDVGVYYCSQNTHVPPTFGQGTKVEIERTVAAPSVFIFPPSDEQLKSGTASVVCLLNNFYPREAKVQWKVDNALQSGNSQESVTEQDSKDSTYSLSSTLTLSKADYEKHKVYACEVTHQGLSSPVTKSFNRGEC	71.2 % of HeCon Ab	167 % of HeCon Ab
GpH7-A5/GpH7-B3 variant G236_10E/GpL16-k0 (heterodimerized antibody, He Ab) (antibody, human IgG1, kappa, Anti-glypican-3 IgG1; the alteration is in the GpH7-B3 chain only; also called G236E) heavy 1: not shown heavy 2: not shown light: DIVMTQSPLSLPVTPGEPASISCQASESLVHSNRNTYLHWYLQKPGQSPQLLIYKVSNRFSGVPDRFSGSGSGTDFTLKISRVEAEDVGVYYCSQNTHVPPTFGQGTKVEIERTVAAPSVFIFPPSDEQLKSGTASVVCLLNNFYPREAKVQWKVDNALQSGNSQESVTEQDSKDSTYSLSSTLTLSKADYEKHKVYACEVTHQGLSSPVTKSFNRGEC	70.7 % of HeCon Ab	110 % of HeCon Ab
GpH7-A5/GpH7-B3 variant G236_11K/GpL16-k0 (heterodimerized antibody, He Ab) (antibody, human IgG1, kappa, Anti-glypican-3 IgG1; the alteration is in the GpH7-B3 chain only; also called G236K) heavy 1: not shown heavy 2: not shown light: DIVMTQSPLSLPVTPGEPASISCQASESLVHSNRNTYLHWYLQKPGQSPQLLIYKVSNRFSGVPDRFSGSGSGTDFTLKISRVEAEDVGVYYCSQNTHVPPTFGQGTKVEIERTVAAPSVFIFPPSDEQLKSGTASVVCLLNNFYPREAKVQWKVDNALQSGNSQESVTEQDSKDSTYSLSSTLTLSKADYEKHKVYACEVTHQGLSSPVTKSFNRGEC	18.6 % of HeCon Ab	49.8 % of HeCon Ab
GpH7-A5/GpH7-B3 variant G236_13S/GpL16-k0 (heterodimerized antibody, He Ab) (antibody, human IgG1, kappa, Anti-glypican-3 IgG1; the alteration is in the GpH7-B3 chain only; also called G236S) heavy 1: not shown heavy 2: not shown light: DIVMTQSPLSLPVTPGEPASISCQASESLVHSNRNTYLHWYLQKPGQSPQLLIYKVSNRFSGVPDRFSGSGSGTDFTLKISRVEAEDVGVYYCSQNTHVPPTFGQGTKVEIERTVAAPSVFIFPPSDEQLKSGTASVVCLLNNFYPREAKVQWKVDNALQSGNSQESVTEQDSKDSTYSLSSTLTLSKADYEKHKVYACEVTHQGLSSPVTKSFNRGEC	64.8 % of HeCon Ab	96.7 % of HeCon Ab
GpH7-A5/GpH7-B3 variant G236_18N/GpL16-k0 (heterodimerized antibody, He Ab) (antibody, human IgG1, kappa, Anti-glypican-3 IgG1; the alteration is in the GpH7-B3 chain only; also called G236N) heavy 1: not shown heavy 2: not shown light: DIVMTQSPLSLPVTPGEPASISCQASESLVHSNRNTYLHWYLQKPGQSPQLLIYKVSNRFSGVPDRFSGSGSGTDFTLKISRVEAEDVGVYYCSQNTHVPPTFGQGTKVEIERTVAAPSVFIFPPSDEQLKSGTASVVCLLNNFYPREAKVQWKVDNALQSGNSQESVTEQDSKDSTYSLSSTLTLSKADYEKHKVYACEVTHQGLSSPVTKSFNRGEC	37.8 % of HeCon Ab	96.4 % of HeCon Ab

Now from value to binder:

He/Con_3a (IIIa binding) [1]	He/Con_2b (IIb binding) [2]	Binder
48.8 % of HeCon Ab	124 % of HeCon Ab	GpH7-A5/GpH7-B3 variant G237_02A/GpL16-k0 (heterodimerized antibody, He Ab) (antibody, human IgG1, kappa, Anti-glypican-3 IgG1; the alteration is in the GpH7-B3 chain only; also called G237A) heavy 1: not shown heavy 2: not shown light: DIVMTQSPLSLPVTPGEPASISCQASESLVHSNRNTYLHWYLQKPGQSPQLLIYKVSNRFSGVPDRFSGSGSGTDFTLKISRVEAEDVGVYYCSQNTHVPPTFGQGTKVEIERTVAAPSVFIFPPSDEQLKSGTASVVCLLNNFYPREAKVQWKVDNALQSGNSQESVTEQDSKDSTYSLSSTLTLSKADYEKHKVYACEVTHQGLSSPVTKSFNRGEC
25.3 % of HeCon Ab	149 % of HeCon Ab	GpH7-A5/GpH7-B3 variant G237_04F/GpL16-k0 (heterodimerized antibody, He Ab) (antibody, human IgG1, kappa, Anti-glypican-3 IgG1; the alteration is in the GpH7-B3 chain only; also called G237F) heavy 1: not shown heavy 2: not shown light: DIVMTQSPLSLPVTPGEPASISCQASESLVHSNRNTYLHWYLQKPGQSPQLLIYKVSNRFSGVPDRFSGSGSGTDFTLKISRVEAEDVGVYYCSQNTHVPPTFGQGTKVEIERTVAAPSVFIFPPSDEQLKSGTASVVCLLNNFYPREAKVQWKVDNALQSGNSQESVTEQDSKDSTYSLSSTLTLSKADYEKHKVYACEVTHQGLSSPVTKSFNRGEC
10.9 % of HeCon Ab	24.6 % of HeCon Ab	GpH7-A5/GpH7-B3 variant G237_05P/GpL16-k0 (heterodimerized antibody, He Ab) (antibody, human IgG1, kappa, Anti-glypican-3 IgG1; the alteration is in the GpH7-B3 chain only; also called G237P) heavy 1: not shown heavy 2: not shown light: DIVMTQSPLSLPVTPGEPASISCQASESLVHSNRNTYLHWYLQKPGQSPQLLIYKVSNRFSGVPDRFSGSGSGTDFTLKISRVEAEDVGVYYCSQNTHVPPTFGQGTKVEIERTVAAPSVFIFPPSDEQLKSGTASVVCLLNNFYPREAKVQWKVDNALQSGNSQESVTEQDSKDSTYSLSSTLTLSKADYEKHKVYACEVTHQGLSSPVTKSFNRGEC
